What was measured:
Assay type in all cases: in vivo
[1] = tested on: experimental rat wounds; test: Rat model of scar formation, dose response, two equal doses separated by 24 hours; details: repeated treatment with low doses or with high doses (range 5-500 ng/cm), 24 hours apart
Method: FIG. 10 illustrates a “bell-shaped” dose response curve in a rat model of scar formation in response to different doses of TGF-β3. TGF-β3 was provided to wounds via two injections of TGF-β3 separated by approximately 24 hours. The amount of TGF-β3 provided in each injection was the same in each incidence of treatment.
FIG. 10 illustrates that the TGF-β3 “bell-shaped” dose response curve observed in human subjects is also found in experimental animals. Here, TGF-β3 was provided to experimental rat wounds, in two incidences of treatment separated by 24 hours (the first incidence of treatment occurring at, or around, the time of wounding). The amount of TGF-β3 administered per centimetre of wound in each incidence of treatment is shown on the X-axis (5 ng/cm, 50 ng/cm, 200 ng/cm or 500 ng/cm).

[2] = tested on: human wounds; test: Clinical trial, two incidences of treatment within approximately 1 hour, lay panel VAS scar scoring
Method: FIG. 2 illustrates data from a clinical trial conducted by the inventors. In this study TGFβ3 and Placebo were each administered in two separate incidences of treatment (by means of two intradermal injections). However, unlike the methods of the present invention, the first incidence of treatment took place immediately prior to wounding but the second incidence of treatment occurred immediately after wound closure, i.e., both doses being administered within approximately 1 hour of one another (the first ten to thirty minutes prior to wounding, and the second ten to thirty minutes post-wounding). […] To test the treatment effect, ToScar of the TGFβ3 scar was subtracted from the anatomically matched Placebo ToScar on the other arm on each subject. ToScar was calculated as the sum of VAS scores (mm) from week 6 and months 3, 4, 5, 6 and 7. The scars were scored by an independent lay panel at 6 time points after dosing (week 6, months 3-7) using a 100 mm VAS line.
FIG. 8 illustrates data from a clinical trial conducted by the inventors in which either TGF-β3 or placebo were administered in two incidents of treatment (each comprising administration of the test substance by intradermal injection), the first incidence occurring prior to wounding and the second immediately after wound closure, i.e., both doses of TGF-β3 being the same as one another, and administered within approximately 1 hour (10-30 mins prior to wounding and 10-30 mins post wounding).

[3] = tested on: human wounds; test: Human study, two incidences of treatment approximately 24 hours apart, lay panel VAS scar scoring and macroscopic images
Method: In this study, control treatments using TGFβ3 and Placebo were administered in two incidences of treatment (each by intradermal injection), the first prior to wounding and the second approximately 24 hours after wounding. […] To test the effect of control treatment with TGF-β3, ToScar of the TGFβ3 scar was subtracted from the anatomically matched Placebo ToScar on the other arm on each subject. ToScar was calculated as the sum of VAS scores (mm) from week 6 and months 3, 4, 5, 6 and 7. The scars were scored by an independent lay panel at 6 time points after dosing (week 6, months 3-7) using a 100 mm VAS line.
The macroscopic images are from within subject scars produced on healing of placebo treated and TGFβ3 control treated wounds (dosed twice with 50 ng, 200 ng or 500 ng/100 μl TGFβ3 per cm of wound margin in two incidences of treatment approximately 24 hours apart) in a clinical trial conducted by the inventors. The same amount of TGF-β3 was administered in each incidence of treatment, and the amounts used are shown in the captions (50 ng/100 μl TGFβ3 per cm of wound margin shown top left, with placebo from the same subject top right; 200 ng/100 μl TGFβ3 per cm of wound margin shown middle left, with placebo from the same subject middle right; and 500 ng/100 μl TGFβ3 per cm of wound margin shown bottom left, with placebo from the same subject bottom right).
TGFβ3 and Placebo were administered by means of intradermal injection in two incidences of treatment, the first prior to wounding and the second approximately 24 hours later. […] The scars were scored by an independent lay panel at 6 time points after dosing (week 6, months 3-7) using a 100 mm VAS line.

B1: TGF-β3: well-known anti-scarring growth factor, Sequence ID No. 1; labelled "Juvista" in FIGS. 8 and 9 (protein, listed as Homo sapiens)
chain: ALDTNYCFRNLEENCCVRPLYIDFRQDLGWKWVHEPKGYYANFCSGPCPYLRSADTTHSTVLGLYNTLNPEASASPCCVPQDLEPLTILYYVGRTPKVEQLSNMVVKSCKCS
inhibition of scarring [1]: little inhibition of scarring | inhibition of scarring (mean VAS scores over time) ([2]; two applications of 5, 50, 200 and 500 ng/100 μl per cm within approximately 1 hour, week 6 to month 7): scarring is inhibited | inhibition of scarring ([2]; two applications of 5, 50, 200 and 500 ng/100 μl per cm, both within approximately 1 hour): effectively inhibited | scar improvement (placebo ToScar minus TGFβ3 ToScar, sum of VAS scores), average ([2]; two applications within approximately 1 hour, 200 ng/100 μl per cm, maximum improvement): > 40 mm | drug efficacy at top of dose range ([2]; two applications within approximately 1 hour, 500 ng/100 μl per cm, versus 200 ng): reduction in drug efficacy | effectiveness relative to other doses ([3]; 500 ng in each of two incidences of treatment separated by 24 hours): notably more effective than the others | effectiveness relative to other doses (mean VAS scores over time) ([3]; 500 ng per centimetre in each incidence of treatment, approximately 24 hours apart): surprisingly more effective than the other methods of treatment | inhibition of scarring, macroscopic images ([3]; 500 ng/100 μl per cm twice approximately 24 hours apart (highest dose), versus 50 and 200 ng): greatest inhibition of scarring achieved | inhibition of scarring ([3]; two applications of 5, 50, 200 and 500 ng/100 μl per cm, prior to and approximately 24 hours post-wounding): effectively inhibited | inhibition of scarring (mean VAS scores over time) ([3]; two applications of 5, 50, 200 or 500 ng/100 μl per cm, prior to wounding and approximately 24 hour post-wounding, week 6 to month 7): scarring is inhibited

Source: patent US20100266532A1, “METHODS FOR INHIBITING SCARRING” (Renovo Limited, priority 2007, published 2010)
